Source: US20060099643A1, “Method for determining the regulation of xenobiotic removal” (priority 2002, published 2006)

Assays:
ER-β [1] = biological target: T1, ER-β (UniProt Q92731 256-505, limits assumed); test: Thermofluor thermal shift; ER-β 8 µM with 4-OH-tamoxifen 20 µM; SRC-3 11 µM
T1 construct: also called estrogen receptor beta

ER-α [2] = biological target: T2, ER-α (UniProt P03372 297-554, limits assumed); test: Thermofluor thermal shift; ER-α 8 µM with estradiol 20 µM; SRC-3 11 µM
T2 construct: also called estrogen receptor alpha
T2 sequence (looked up): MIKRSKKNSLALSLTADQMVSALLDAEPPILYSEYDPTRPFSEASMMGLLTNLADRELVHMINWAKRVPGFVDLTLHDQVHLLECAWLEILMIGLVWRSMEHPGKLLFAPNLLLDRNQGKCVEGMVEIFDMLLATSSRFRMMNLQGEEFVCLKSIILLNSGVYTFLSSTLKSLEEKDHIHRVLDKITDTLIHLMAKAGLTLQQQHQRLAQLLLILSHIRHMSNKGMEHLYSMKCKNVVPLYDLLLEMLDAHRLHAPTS

ER-α [3] = biological target: T2, ER-α; test: Thermofluor thermal shift; ER-α 8 µM, no ligand; SRC-3 11 µM
ER-β [4] = biological target: T1, ER-β; test: Thermofluor thermal shift; ER-β 8 µM with estrone 20 µM; SRC-3 11 µM
ER-β [5] = biological target: T1, ER-β; test: Thermofluor thermal shift; ER-β 8 µM with 17-α-ethylene-E2 20 µM; SRC-3 11 µM
ER-α [6] = biological target: T2, ER-α; test: Thermofluor thermal shift; ER-α 8 µM with 17-α-ethylene-E2 20 µM; SRC-3 11 µM
ER-α [7] = biological target: T2, ER-α; test: Thermofluor thermal shift; ER-α 8 µM with tamoxifen 20 µM; SRC-3 11 µM
ER-α [8] = biological target: T2, ER-α; test: Thermofluor thermal shift; ER-α 8 µM with estrone 20 µM; SRC-3 11 µM
ER-β [9] = biological target: T1, ER-β; test: Thermofluor thermal shift; ER-β 8 µM with estradiol 20 µM; SRC-3 11 µM
ER-β [10] = biological target: T1, ER-β; test: Thermofluor thermal shift; ER-β 8 µM with tamoxifen 20 µM; SRC-3 11 µM
ER-α [11] = biological target: T2, ER-α; test: Thermofluor thermal shift; ER-α 8 µM with ICI-182780 20 µM; SRC-3 11 µM
ER-β [12] = biological target: T1, ER-β; test: Thermofluor thermal shift; ER-β 8 µM with ICI-182780 20 µM; SRC-3 11 µM
ER-α [13] = biological target: T2, ER-α; test: Thermofluor thermal shift; ER-α 8 µM with 4-OH-tamoxifen 20 µM; SRC-3 11 µM
ER-β [14] = biological target: T1, ER-β; test: Thermofluor thermal shift; ER-β 8 µM with 2-methoxy-E2 20 µM; SRC-3 11 µM
ER-β [15] = biological target: T1, ER-β; test: Thermofluor thermal shift; ER-β 8 µM, no ligand; SRC-3 11 µM
ER-α [16] = biological target: T2, ER-α; test: Thermofluor thermal shift; ER-α 8 µM with 2-methoxy-E2 20 µM; SRC-3 11 µM

T1 sequence (Q92731 256-505 limits assumed): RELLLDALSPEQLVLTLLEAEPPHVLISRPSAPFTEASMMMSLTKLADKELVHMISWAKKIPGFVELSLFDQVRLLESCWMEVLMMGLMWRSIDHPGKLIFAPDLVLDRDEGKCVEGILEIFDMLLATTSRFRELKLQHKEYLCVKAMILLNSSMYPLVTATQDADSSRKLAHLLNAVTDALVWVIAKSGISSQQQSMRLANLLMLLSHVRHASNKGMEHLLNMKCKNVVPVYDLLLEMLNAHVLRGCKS

Question: For “co-activator protein SRC-3 (from UniProt Q9Y6Q9 627-829)”, which change in Tm stabilization from the receptor-ligand ΔTm (ER-β [1]) is on record?
Answer: 1.2 °C

Question: And the change in Tm stabilization from the receptor-ligand ΔTm (ER-α [2])?
Answer: 3.8 °C

Question: What about the change in Tm stabilization from the receptor-ligand ΔTm (ER-α [3]) of the same substance?
Answer: 1.5

Question: What about the change in Tm stabilization from the receptor-ligand ΔTm (ER-β [4]) of the same substance?
Answer: 1.6 °C

Question: And the change in Tm stabilization from the receptor-ligand ΔTm (ER-β [5])?
Answer: 2.6

Question: What about the change in Tm stabilization from the receptor-ligand ΔTm (ER-α [6]) of the same substance?
Answer: 4.5 °C

Question: What about the change in Tm stabilization from the receptor-ligand ΔTm (ER-α [7]) of the same substance?
Answer: 1.1 °C

Question: And the change in Tm stabilization from the receptor-ligand ΔTm (ER-α [8])?
Answer: 3.5 °C

Question: What about the change in Tm stabilization from the receptor-ligand ΔTm (ER-β [9]) of the same substance?
Answer: 1.7

Question: What about the change in Tm stabilization from the receptor-ligand ΔTm (ER-β [10]) of the same substance?
Answer: 1.3

Question: And the change in Tm stabilization from the receptor-ligand ΔTm (ER-α [11])?
Answer: 0.5 °C

Question: What about the change in Tm stabilization from the receptor-ligand ΔTm (ER-β [12]) of the same substance?
Answer: 0.9 °C

Question: And the change in Tm stabilization from the receptor-ligand ΔTm (ER-α [13])?
Answer: 0.2

Question: And the change in Tm stabilization from the receptor-ligand ΔTm (ER-β [14])?
Answer: 2.5 °C

Question: And the change in Tm stabilization from the receptor-ligand ΔTm (ER-β [15])?
Answer: 0.9

Question: And the change in Tm stabilization from the receptor-ligand ΔTm (ER-α [16])?
Answer: 5.3
